Assay results from paper PMC4279229 (Molecular Biology of the Cell, 2015).

Target: mouse VASP (wild-type, full-length) (mouse, UniProt P70460 1-375)
Assay: immunolabeling of protein-coated beads

Sequence of mouse VASP (wild-type, full-length) (P70460 whole entry): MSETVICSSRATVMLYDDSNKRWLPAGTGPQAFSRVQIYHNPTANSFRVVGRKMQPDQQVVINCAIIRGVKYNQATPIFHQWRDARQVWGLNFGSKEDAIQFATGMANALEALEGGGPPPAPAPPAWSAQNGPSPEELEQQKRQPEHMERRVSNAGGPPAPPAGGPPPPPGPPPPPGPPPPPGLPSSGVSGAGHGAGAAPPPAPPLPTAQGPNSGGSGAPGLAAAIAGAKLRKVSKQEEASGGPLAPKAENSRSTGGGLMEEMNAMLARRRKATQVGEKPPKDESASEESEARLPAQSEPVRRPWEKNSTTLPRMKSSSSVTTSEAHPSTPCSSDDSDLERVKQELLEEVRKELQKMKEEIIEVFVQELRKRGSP

B1: PRD-VCA-WAVE (PRD-VCA domain of human WAVE-2, Lys195-Asp498) (domain or fragment, UniProt Q9Y6W5 195-498, looked up)
chain: KIKTRKEEWEKMKMGQEFVESKEKLGTSGYPPTLVYQNGSIGCVENVDASSYPPPPQSDSASSPSPSFSEDNLPPPPAEFSYPVDNQRGSGLAGPKRSSVVSPSHPPPAPPLGSPPGPKPGFAPPPAPPPPPPPMIGIPPPPPPVGFGSPGTPPPPSPPSFPPHPDFAAPPPPPPPPAADYPTLPPPPLSQPTGGAPPPPPPPPPPGPPPPPFTGADGQPAIPPPLSDTTKPKSSLPAVSDARSDLLSAIRQGFQLRRVEEQREQEKRDVVGNDVATILSRRIAVEYSDSEDDSSEFDEDDWSD
binding result: binds
